{
  "source": "patent US20220072098A1",
  "about": "(priority 2012, published 2022)",
  "molecules": {"B1": {"name": "free labeled protein: free trypsinogen labeled with AlexaFluor-488 (protein, UniProt P00760 18-246, looked up)", "pro-form": "VDDDDKIVGGYTCGANTVPYQVSLNSGYHFCGGSLINSQWVVSAAHCYKSGIQVRLGEDNINVVEGNEQFISASKSIVHPSYNSNTLNNDIMLIKLKSAASLNSRVASISLPTSCASAGTQCLISGWGNTKSSGTSYPDVLKCLKAPILSDSSCKSAYPGQITSNMFCAGYLEGGKDSCQGDSGGPVVCSGKLQGIVSWGSGCAQKNKPGVYTKVCNYVSWIKQTIASN", "modifications": "pro-form AlexaFluor-488 label"}},
  "test": "Tissue distribution of trypsinogen-AlexaFluor-488 after i.v. injection",
  "type": "in vivo, mice",
  "details": "200 μg i.v., 30 min",
  "protocol": "Trypsinogen—AlexaFluor®-488 was injected i.v. in its free form or encapsulated in the bolavesicles. At 30 min after the injection, mice were anesthetized by Xylazine-Ketamine mixture and blood was withdrawn through cardiac puncture, the mouse was perfused with 10 ml PBS and tissues were dissected out. The dissected tissues were attached to labeled paper stripes, frozen in isopentane cooled over liquid nitrogen, and stored at −80° C. The selected tissues were cryosectioned and the fluorescence of the sections was analyzed using confocal fluorescent microscopy. All images were acquired using the same imaging settings and were not corrected or modified. Fluorescence of slices from different organs was quantified by imaging software after subtracting background fluorescence. In effect, for quantifying the fluorescence in the tissue, the average fluorescence obtained from the control mice, which were injected with PBS instead of the fluorescent material was subtracted from the fluorescence values obtained from the same tissue taken from animals that received Trypsinogen-AlexaFluor®-488. At least 4 slices from each organ of each mouse were used for the quantitative analysis and each group contained 4-5 mice.\nPrior to delivering GDNF to the brain, pilot experiment, in vivo, studies were carried out with the model protein—trypsinogen, which was labeled for this purpose with AlexaFluor®-488. […]",
  "data": [
    {"molecule": "B1", "values": [
      {"measurement": "labeled trypsinogen fluorescence in kidney", "value": "high fluorescence"}
    ]}
  ]
}
